The RNAGym collection of RNA variant scans (doi:10.1021/acssynbio.7b00057)

B1: Pistol ribozyme (parent)
chain: GGGUCGUUGUUCCAUAAUCGCGUGGAUAUGGCACGCAAGUUUCUACCGGGCACCGUAAAUGUCCGACUGGAGCCGUUCGGGCGGCUAUAAACAGACCUCAGGCCCGAAGCGUGGCGGCACCUGCCGCCGGUGGUAAAAAAGAUCGGAAGAGCACACGUCU

Variants of: B1
Test: aptazyme ON/OFF ratio, guanine; higher = stronger switching; co-transcriptional cleavage with and without guanine

| Variant | aptazyme ON/OFF ratio |
| --- | --- |
| GGGUCGAGUAACGAUAAUCGCGUGGAUAUGGCACGCAAGUUUCUACCGGGCACCGUAAAUGUCCGACUGGAGCCGUUCGGGCGGCUAUAAACAGACCUCAGGCCCGAAGCGUGGCGGCACCUGCCGCCGGUGGUAAAAAAGAUCGGAAGAGCACACGUCU | 1.15 |
| GGGUCGAGCAUACAUAAUCGCGUGGAUAUGGCACGCAAGUUUCUACCGGGCACCGUAAAUGUCCGACUGGAGCCGUUCGGGCGGCUAUAAACAGACCUCAGGCCCGAAGCGUGGCGGCACCUGCCGCCGGUGGUAAAAAAGAUCGGAAGAGCACACGUCU | 1.4 |
| GGGUCGACAACUAAUAAUCGCGUGGAUAUGGCACGCAAGUUUCUACCGGGCACCGUAAAUGUCCGACUGGAGCCGUUCGGGCGGCUAUAAACAGACCUCAGGCCCGAAGCGUGGCGGCACCUGCCGCCGGUGGUAAAAAAGAUCGGAAGAGCACACGUCU | 1.12 |
| GGGUCGAUAGUGGAUAAUCGCGUGGAUAUGGCACGCAAGUUUCUACCGGGCACCGUAAAUGUCCGACUGGAGCCGUUCGGGCGGCUAUAAACAGACCUCAGGCCCGAAGCGUGGCGGCACCUGCCGCCGGUGGUAAAAAAGAUCGGAAGAGCACACGUCU | 1.11 |
| GGGUCGAACUUGCAUAAUCGCGUGGAUAUGGCACGCAAGUUUCUACCGGGCACCGUAAAUGUCCGACUGGAGCCGUUCGGGCGGCUAUAAACAGACCUCAGGCCCGAAGCGUGGCGGCACCUGCCGCCGGUGGUAAAAAAGAUCGGAAGAGCACACGUCU | 1.1 |
| GGGUCGUAGUACCAUAAUCGCGUGGAUAUGGCACGCAAGUUUCUACCGGGCACCGUAAAUGUCCGACUGGAGCCGUUCGGGCGGCUAUAAACAGACCUCAGGCCCGAAGCGUGGCGGCACCUGCCGCCGGUGGUAAAAAAGAUCGGAAGAGCACACGUCU | 1.14 |
| GGGUCGUAGGUGGAUAAUCGCGUGGAUAUGGCACGCAAGUUUCUACCGGGCACCGUAAAUGUCCGACUGGAGCCGUUCGGGCGGCUAUAAACAGACCUCAGGCCCGAAGCGUGGCGGCACCUGCCGCCGGUGGUAAAAAAGAUCGGAAGAGCACACGUCU | 1.12 |
| GGGUCGUAUUGACAUAAUCGCGUGGAUAUGGCACGCAAGUUUCUACCGGGCACCGUAAAUGUCCGACUGGAGCCGUUCGGGCGGCUAUAAACAGACCUCAGGCCCGAAGCGUGGCGGCACCUGCCGCCGGUGGUAAAAAAGAUCGGAAGAGCACACGUCU | 1.07 |
| GGGUCGGAGCGACAUAAUCGCGUGGAUAUGGCACGCAAGUUUCUACCGGGCACCGUAAAUGUCCGACUGGAGCCGUUCGGGCGGCUAUAAACAGACCUCAGGCCCGAAGCGUGGCGGCACCUGCCGCCGGUGGUAAAAAAGAUCGGAAGAGCACACGUCU | 1.27 |
| GGGUCGGUAGAGGAUAAUCGCGUGGAUAUGGCACGCAAGUUUCUACCGGGCACCGUAAAUGUCCGACUGGAGCCGUUCGGGCGGCUAUAAACAGACCUCAGGCCCGAAGCGUGGCGGCACCUGCCGCCGGUGGUAAAAAAGAUCGGAAGAGCACACGUCU | 1.11 |
| GGGUCGAACCAUGAUAAUCGCGUGGAUAUGGCACGCAAGUUUCUACCGGGCACCGUAAAUGUCCGACUGGAGCCGUUCGGGCGGCUAUAAACAGACCUCAGGCCCGAAGCGUGGCGGCACCUGCCGCCGGUGGUAAAAAAGAUCGGAAGAGCACACGUCU | 1.1 |
| GGGUCGGGAUCCUAUAAUCGCGUGGAUAUGGCACGCAAGUUUCUACCGGGCACCGUAAAUGUCCGACUGGAGCCGUUCGGGCGGCUAUAAACAGACCUCAGGCCCGAAGCGUGGCGGCACCUGCCGCCGGUGGUAAAAAAGAUCGGAAGAGCACACGUCU | 1.28 |
| GGGUCGUCGAUGAAUAAUCGCGUGGAUAUGGCACGCAAGUUUCUACCGGGCACCGUAAAUGUCCGACUGGAGCCGUUCGGGCGGCUAUAAACAGACCUCAGGCCCGAAGCGUGGCGGCACCUGCCGCCGGUGGUAAAAAAGAUCGGAAGAGCACACGUCU | 1.17 |
| GGGUCGUCUACAGAUAAUCGCGUGGAUAUGGCACGCAAGUUUCUACCGGGCACCGUAAAUGUCCGACUGGAGCCGUUCGGGCGGCUAUAAACAGACCUCAGGCCCGAAGCGUGGCGGCACCUGCCGCCGGUGGUAAAAAAGAUCGGAAGAGCACACGUCU | 1.08 |
| GGGUCGUUAAAUUAUAAUCGCGUGGAUAUGGCACGCAAGUUUCUACCGGGCACCGUAAAUGUCCGACUGGAGCCGUUCGGGCGGCUAUAAACAGACCUCAGGCCCGAAGCGUGGCGGCACCUGCCGCCGGUGGUAAAAAAGAUCGGAAGAGCACACGUCU | 1.57 |
| GGGUCGCAAUAUCAUAAUCGCGUGGAUAUGGCACGCAAGUUUCUACCGGGCACCGUAAAUGUCCGACUGGAGCCGUUCGGGCGGCUAUAAACAGACCUCAGGCCCGAAGCGUGGCGGCACCUGCCGCCGGUGGUAAAAAAGAUCGGAAGAGCACACGUCU | 1.25 |
| GGGUCGCCUAAGAAUAAUCGCGUGGAUAUGGCACGCAAGUUUCUACCGGGCACCGUAAAUGUCCGACUGGAGCCGUUCGGGCGGCUAUAAACAGACCUCAGGCCCGAAGCGUGGCGGCACCUGCCGCCGGUGGUAAAAAAGAUCGGAAGAGCACACGUCU | 1.03 |
| GGGUCGUGAUCCGAUAAUCGCGUGGAUAUGGCACGCAAGUUUCUACCGGGCACCGUAAAUGUCCGACUGGAGCCGUUCGGGCGGCUAUAAACAGACCUCAGGCCCGAAGCGUGGCGGCACCUGCCGCCGGUGGUAAAAAAGAUCGGAAGAGCACACGUCU | 1.01 |
